Assay results taken from US20090137002A1 (published 2009).

Target: T1, recombinant human EphB4-Fc fusion protein (human, UniProt P54760 16-539)
T1 construct: extracellular domain; also called hEphB4; hu EphB4-Fc
T1 sequence (looked up): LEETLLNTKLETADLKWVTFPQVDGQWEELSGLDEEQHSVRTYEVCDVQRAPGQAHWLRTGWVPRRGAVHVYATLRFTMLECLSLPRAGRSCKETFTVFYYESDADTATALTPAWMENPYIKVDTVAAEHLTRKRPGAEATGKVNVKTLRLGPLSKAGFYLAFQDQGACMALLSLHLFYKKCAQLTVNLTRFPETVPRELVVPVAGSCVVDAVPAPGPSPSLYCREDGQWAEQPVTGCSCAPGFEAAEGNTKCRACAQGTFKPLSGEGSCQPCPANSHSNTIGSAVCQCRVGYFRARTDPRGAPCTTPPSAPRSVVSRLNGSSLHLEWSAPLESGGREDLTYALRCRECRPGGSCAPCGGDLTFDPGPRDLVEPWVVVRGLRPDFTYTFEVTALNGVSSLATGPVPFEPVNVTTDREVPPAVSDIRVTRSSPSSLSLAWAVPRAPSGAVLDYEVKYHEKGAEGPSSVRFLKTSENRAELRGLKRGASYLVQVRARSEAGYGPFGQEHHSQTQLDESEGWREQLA
Experiment: competition ELISA on coated hEphB4, competitor biotinylated mEphrinB2 250 ng/mL
Procedure: A 96-well plate was coated with recombinant hEphB4 in PBS o/n at 4° C. (5 μg/mL; 100 μL/well). The next day, the antigen was discarded and the plate blocked with 3% BSA/PBS (300 μl/well) for 2 hrs at room temperature (RT). Blocking solution was discarded and anti-EphB4 Fabs were added to the wells at different concentrations in 1% BSA/PBS and incubated for 30 min at RT. Recombinant biotinylated murine EphrinB2 was added at a final concentration of 250 ng/mL and incubated at RT for a further 30 min. The plate was washed and bound EphrinB2 was detected with Streptavidin-HRP (incubation 30 min at RT) and chemifluorescent substrate.

B1: MOR03641 Fab (Fab, V domains shown)
VH: QVQLVQSGAEVKKPGSSVKVSCKASGGTFSTYAISWVRQAPGQGLEWMGRIIPIFGTANYAQKFQGRVTITADESTSTAYMELSSLRSEDTAVYYCARSSYTILTTYYNYNAMDNWGQGTLVTVSS
VL: DIQMTQSPSSLSASVGDRVTITCRASQNINNFLNWYQQKPGKAPKLLIYGSSILQSGVPSRFSGSGSGTDFTLTISSLQPEDFAVYYCHQVSDTSDTFGQGTKVEIKR
notes: Monomeric HuCAL Fab (VH1A, kappa1), purified, MH-tagged; also called 3541 [sic]
  IC50 (read off the curve): ~4 µg/mL
